According to paper PMC7287101:

Target: Spt6 (UniProt Q9W420)
Assay: anti-Spt6 co-IP, FLAG blot, 150 mM wash
Conditions: reference: wild type dCENP-A-FLAG; sites S20,S75,S77

dCENP-A (CID) (from UniProt Q9V6Q2) S20/S75/S77A
binding against the reference: stronger
